Numbering of substitutions follows the chain as printed.
T1: recombinant NT-proBMP10 (22-312) (human, UniProt O95393 22-312)
T1 construct: In-house construct; also called pro-peptide BMP10; BMP10(312)
T1 sequence: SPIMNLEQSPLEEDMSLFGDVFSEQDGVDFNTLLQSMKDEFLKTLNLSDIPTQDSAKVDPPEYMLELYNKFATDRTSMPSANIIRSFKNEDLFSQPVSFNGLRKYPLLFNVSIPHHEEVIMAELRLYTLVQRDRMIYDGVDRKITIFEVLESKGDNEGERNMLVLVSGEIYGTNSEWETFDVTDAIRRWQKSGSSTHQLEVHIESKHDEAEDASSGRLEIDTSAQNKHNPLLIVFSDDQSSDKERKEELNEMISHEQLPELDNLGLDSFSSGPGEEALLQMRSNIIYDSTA

B1: MAB<BMP10>rRb-14C8 HC2/LC3 (p10th/p10ti)-IgG(SPA) (antibody, V domains shown)
VH: QSVEESGGRLVTPGTPLTLTCTASGIDLSRYAMTWVRQAPGKGLEWIGIIGASSGTWYASWAKGRFTIAKTSTTVDLRITSPTTEDTATYFCARDNGDSKDYAFDPWGPGTLVTVSS
VL: IDMTQTPSPVSAAVGDTVTINCQASENIYSFLAWYQQKPGHSPNLLIYFASKLVSGVPSRFKGSGSGTQFTLTISDVQCDDAATYYCQQTYTYSNGDNPFGGGTEVVVK
notes: Recombinant rabbit monoclonal IgG; also called clone 14C8; VH-5/VL-5
B2: MAB<BMP10>rRb-9E7 HC12/LC7 (p10rw/p10rx)-IgG(SPA) (antibody, V domains shown)
VH: QSLEESGGGLVQPEGSLTLTCIASAFSFSSGYYMCWVRQAPGKGLEWIACIYAGSSGTTYYASWAKGRFTISKASSTTVTLLMTSLTAADTATYFCARGPGASGYRLGLWGPGTLVTVSS
VL: DVVMTQTPASVSEPVGGTVTIKCQASEDIYRLLAWYQQKPGQPPKLLIYDASDLASGVPSRLSGSGSGTEYTLSISDLECADAATYYCQQGYYISGGDSFGGGTEVVVK
notes: Recombinant rabbit monoclonal IgG; also called clone 9E7
B3: 11C10 (antibody, V domains shown)
VH: QSLEESGGRLVTPGTALTVTCTVSGIDLSRNLMSWVRQAPGEGLEWIGSINFRNITWYASWAKGRFTISKTSTTVDLRISSPTTEDTATYFCARGVYVNSNGYYSLWGQGTPVTVSS
VL: DIVMTQTPASVEAAVGGTVTINCQASQSVSNLLAWYQQKPGQPPKLLIYGASKLESGVPSRFKGSGSGTQFTLTINDLECDDAATYYCQTYWGGDGTSYLNPFGGGTEVVVK
notes: Rabbit monoclonal IgG; also called clone 11C10; VH-3/VL-3
B4: MAB<BMP10>rRb-11A5 HC6/LC3.2 (p10se/p10sf)-IgG(SPA) (antibody, V domains shown)
VH: QSVEESGGRLVTPGTPLTLTCTASGFSLSSYAMSWVRQAPGKGLQFIGYISGGGSTYYASWVKGRFTISKTSTTVDLKLTSPTTEDTATYFCARGYPGYISGTWAVGQGTLVTVSS
VL: AVLTQTPSPVSAAVGGTVSISCQSSQSVVNNNRCSWFQQKPGQPPKQLIYSASTLASGVPSRFKGSGSGTQFTLTISDVQCDDAATYYCLGDYVSYGDSAFGGGTEVVVK
notes: Recombinant rabbit monoclonal IgG; also called clone 11A5; VH-2/VL-2
B5: MAB<BMP10>rRb-13G6 (p10tf/p10tg)-IgG(SPA) (antibody, V domains shown)
VH: QSLEESGGRLVTPGTPLTLTCTVSGFSLSNYAMSWVRQAPGMGLEYIGYISASGNTYYASWVKGRFTISKTSTTVDLKMTSPTTEDTATYFCARGYSGWISGTWAVGQGTLVTVSS
VL: B4 VL with S19N, S21G, C34L, K40R, S51R, G97S, D98E, S99A
notes: Recombinant rabbit monoclonal IgG; also called clone 13G6; VH-4/VL-4
B6: MAB<BMP10>rRb-3H8 HC3/LC3 (p10qx/p10qy)-IgG(SPA) (antibody, V domains shown)
VH: QSVEESGGRLVTPGTPLTLTCTASGFSLSKYDMSWVRQAPGKGLEWIGAIGGRGVTDYTTWAKGRFTISKTATTVDLKMTSPTTEDTATYFCVRALAGDTLWGPGTLVTVSS
VL: AQVLTQTASPVSAAVGSTVTINCQASQNIYKYNNLAWYQQKPGQPPKRLIYEASKLASGVPSRFSGSGSGTQFTLTISGVQCEDAATYYCQGTFECSSADCFGFGGGTEVVVK
notes: Recombinant rabbit monoclonal IgG; also called clone 3H8; VH-7/VL-7
B7: MAB<BMP10>rRb-8G5 HC3/LC5 (p10qz/p10ra)-IgG(SPA) (antibody, V domains shown)
VH: QSLEESGGDLVKPGASLTLTCTASGFSFSSSYWICWVRQAPGKGLEWIACIYAGSSDITYYASWAKGRFTVSKTSSPTVTLQMTSLTAADTATYFCARGRYYVDGYADYYPGDFNLWGPGTLVTVSS
VL: DIVMTQTPASVEAAVGGTVTIKCQASQSISSYLAWYQQKSGQPPKLLIYLASTLESGVPSRFKGSGSGTEFTLTISDLECADAATYYCQSYYYSSSSSYGSAFGGGTEVVVK
notes: Recombinant rabbit monoclonal IgG; also called clone 8G5; VH-8/VL-8
B8: MAB<BMP10>rRb-2H8 HC7/LC6 (p10qv/p10qw)-IgG(SPA) (antibody, V domains shown)
VH: QSVEESGGRLVTPGTPLTLTCTASAFSLSRYVMSWVRQAPGKGLEFIGFINASGSTSYASWAKGRFTISKTSTTVDLKMTSLTTEDTATYFCATGNLWGPGTLVTVSS
VL: DIVMTQTPSSVSGPVGGTVTINCQASQNIYSNLAWYQQKPGQPPKLLIYYASTLVSGVPSRFKGSGSGTQFTLTISDLECANAATYYCQSKDGPTSSTYGAFGGGTEVVVR
notes: Recombinant rabbit monoclonal IgG; also called clone 2H8; VH-6/VL-6

Columns and labels:
[1] = target: T1, recombinant NT-proBMP10 (22-312); experiment: SPR Biacore 8K, 37°C, bound analyte per mAb
[2] = target: T1, recombinant NT-proBMP10 (22-312); experiment: SPR Biacore 8K, 37°C, mAb captured by goat anti-rabbit Fc, BMP10(312) 3.7-300 nM as analyte; apparent, avidity-burdened
Procedure: (§1) The association phase was monitored for 3 minutes; dissociation phase was monitored for 10 minutes. After each cycle of kinetics determination, the rabbit clones were eluted from the capture system by an injection of 10 mM Glycine pH 2.0 for 1 minute, followed by two consecutive injections of 10 mM Glycine pH 2.25 at 20 μL/min for 1 minute.
(§2) The dissociation rate constant kd was evaluated using a Langmuir 1:1 fit model according to the BIAcore™ evaluation software Insight SW V 2.0 from GE Healthcare. The antigen/antibody complex stability half-life time (minutes) was calculated according to the formula ln(2)/60*kd.

[3] = target: T1, recombinant NT-proBMP10 (22-312); experiment: SPR Biacore 8K, 37°C, mAb captured, BMP10(312) as analyte; ln(2)/60*kd
Procedure: as §1, §2

Row | Binder | MR (Molar Ratio) [1] | koff [2] | t/2 diss (complex half-life) [3]
1 | B1 | 1.3 | 0.0012 s⁻¹ | 10 min
2 | B2 | 1.4 | 0.00054 s⁻¹ | 21 min
3 | B3 | 1.3 | 0.00045 s⁻¹ | 26 min
4 | B4 | 1.4 | 0.00039 s⁻¹ | 30 min
5 | B5 | 1.3 | < 0.0001 s⁻¹ | > 115 min
6 | B6 | 1.3 | 0.00078 s⁻¹ | 15 min
7 | B7 | 1.2 | 0.0021 s⁻¹ | 6 min
8 | B8 | 1.2 | 0.0003 s⁻¹ | 38 min
